Results taken from US20240327530A1 (ICHNOS SCIENCES, published 2024).

How the values were obtained:
[1] = biological target: T1, Human IL-1RAP, membrane-bound on human cells (HaCaT, dermal fibroblasts, neutrophils, PBMC, whole blood) (human, UniProt Q9NPH3 21-570); experiment: cell-based or functional assay
T1 sequence: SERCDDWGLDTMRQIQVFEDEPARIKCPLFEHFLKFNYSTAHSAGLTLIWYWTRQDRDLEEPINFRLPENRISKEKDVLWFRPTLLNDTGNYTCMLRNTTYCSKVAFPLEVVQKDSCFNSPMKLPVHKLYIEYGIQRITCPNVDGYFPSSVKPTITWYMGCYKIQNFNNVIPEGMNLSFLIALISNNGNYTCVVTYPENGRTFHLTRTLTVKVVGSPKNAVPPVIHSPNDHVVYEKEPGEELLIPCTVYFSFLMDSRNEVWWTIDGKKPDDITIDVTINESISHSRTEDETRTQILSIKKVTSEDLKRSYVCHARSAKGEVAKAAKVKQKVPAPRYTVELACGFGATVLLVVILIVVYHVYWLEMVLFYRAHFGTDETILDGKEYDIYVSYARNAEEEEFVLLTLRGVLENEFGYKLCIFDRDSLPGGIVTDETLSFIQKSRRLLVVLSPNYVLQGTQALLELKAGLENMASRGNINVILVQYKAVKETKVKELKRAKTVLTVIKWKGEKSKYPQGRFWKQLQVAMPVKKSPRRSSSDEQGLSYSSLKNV

[2] = biological target: T1, Human IL-1RAP, membrane-bound on human …; experiment: flow cytometry on HaCaT wild-type cells, anti-human IgG PE-Cyanine7, relative geometric MFI (isotype subtracted)
Experimental: A dose-response of anti-human IL-1RAP_candidate_1 (●) or Isotype control_5 (▪) was incubated with various cell lines and cell types. Bound antibodies were detected with a monoclonal anti-human IgG PE-Cyanine7 secondary antibody. The graphs show the nonlinear sigmoidal regression binding curves (Relative Geometric Mean Fluorescence Intensity) for each cell lines. Each data point is a measurement for a given cell line. Multiple independent experiments were performed across several donors (HaCaT and HaCaT IL-1RAP KO: 4 and 3 independent experiments; Human Dermal Fibroblasts: 2 independent experiments—total of 5 donors; Human Neutrophil: 2 experiments—total of 6 donors; Cyno Dermal Fibroblasts: 2 independent experiment—total of 4 donors).
In brief, cells were harvested, counted, and plated at 50,000 cells/well in a 96-well round-bottom plate. […] The cells were gated based on size on FSC vs SSC and analyzed for PE-Cyanine7-geometric mean (geomean) fluorescence intensity using FLOWJO® software. Finally, relative geomean fluorescence intensity was calculated by subtracting fluorescence of anti-human IL-1RAP_candidate_1 per fluorescence of Isotype control_5. […]

[3] = biological target: T1, Human IL-1RAP, membrane-bound on human …; experiment: flow cytometry on HaCaT cell line, nonlinear sigmoidal regression
Experimental: In brief, cells were harvested, counted, and plated at 50,000 cells/well in a 96-well round-bottom plate. The plate was centrifuged at 350 g for 3 minutes and the cells were resuspended in 50 μl of FACS® buffer (PBS (1×)+2.5% FCS+2 mM EDTA+0.05% NaN₃) containing various concentrations (ranging from 50 to 0.00003 μg/ml) of either anti-human IL-1RAP_candidate_1 or Isotype control_5 antibodies. Stained cells were incubated for 30 minutes at 4° C., washed twice with FACS® buffer at 350 g for 3 min and resuspended in […] of a monoclonal anti-human IgG PE-Cyanine7 secondary antibody (Biolegend, 409316) diluted 1/200 in FACS® buffer. Cells were then washed twice and resuspended in 200 μl of FACS® buffer containing SYTOX® Green dead cell stain (THERMO FISHER […]®, S34860) and samples were acquired on a CYTOFLEX® instruments (Beckman Coulter). The cells were gated based on size on FSC vs SSC and analyzed for PE-Cyanine7-geometric mean (geomean) fluorescence intensity using FLOWJO® software. Finally, relative geomean fluorescence intensity was calculated by subtracting fluorescence of anti-human IL-1RAP_candidate_1 per fluorescence of Isotype control_5. As depicted in FIGS. 6A, 6B, 6C, 6D, and 6E, anti-human IL-1RAP_candidate_1 antibody recognizes membrane-bound IL-1RAP expressed on HaCaT cell line and all primary cells. Multiple independent experiments were performed using multiple donors. […]

B1: Anti-IL-1RAP-C8-RecC-ES-IgG1LALA (antibody, V domains shown)
VH: QVQLVQSGAEVKKPGSSVKVSCKASGSPAEPYAIQWVRQAPGQGLEWMGYIIPSLGGYDYAQKFQGRVTITADESTSTAYMELSSLRSEDTAVYYCARGQTLYESGRQFDIWGQGTLVTVSS
VL: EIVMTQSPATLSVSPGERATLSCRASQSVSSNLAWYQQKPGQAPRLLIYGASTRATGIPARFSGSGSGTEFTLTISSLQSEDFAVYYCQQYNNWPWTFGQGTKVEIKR
notes: also called ISB 880-C8-recC-ES
human whole blood, IL-1alpha stimulation, IL-6 release, mean EC50 of inhibition [1]: 9.5 nM
human whole blood, IL-1alpha stimulation, IL-8 release, mean EC50 of inhibition [1]: 14.2 nM
human whole blood, IL-1alpha stimulation, MCP-1 release, mean EC50 of inhibition [1]: 11.1 nM
human whole blood, IL-1alpha stimulation, MIP-1alpha release, mean EC50 of inhibition [1]: 15 nM
human whole blood, IL-1alpha stimulation, MIP-1beta release, mean EC50 of inhibition [1]: 89 nM
human whole blood, IL-1beta stimulation, IL-6 release, mean EC50 of inhibition [1]: 8.8 nM
human whole blood, IL-1beta stimulation, IL-8 release, mean EC50 of inhibition [1]: 24.7 nM
human whole blood, IL-1beta stimulation, MCP-1 release, mean EC50 of inhibition [1]: 17.7 nM
human whole blood, IL-1beta stimulation, MIP-1alpha release, mean EC50 of inhibition [1]: 16 nM
human whole blood, IL-1beta stimulation, MIP-1beta release, mean EC50 of inhibition [1]: 53.3 nM
EC50 (read off the curve) [2]: ~0.1 µg/mL
Kd [3]: 0.75 nM
